Measurements published in patent US12679878B2, “CRF2 receptor agonists and their use in therapy” (SANOFI, priority 2020, dated 2026).
Starred links: 1 amine or outer side, 2 acyl side, 3 side chain; linkers in the order of their positions; H or OH if unused. Non-standard residues stand in square brackets, D forms with d. Groups on a side chain read outwards from the residue. No end group written: not given here. *: point of attachment. C18 diacid = O=C(O)CCCCCCCCCCCCCCCCC(=O)*; γGlu = O=C(O)[C@H](CCC(=O)[*:2])N[*:1]; Palmitoyl = CCCCCCCCCCCCCCCC(=O)*; AEEA = NCCOCCOCC(=O)O; Aib = CC(C)(N)C(=O)O

B1: SEQ ID NO: 141 (peptide)
peptide: IVLSLD[dV]PIKLK([AEEA-AEEA-γGlu-C18 diacid])QILLKQARQK[Aib]QRAQAEKNKRILERV-NH2
modifications: N-terminus assumed
SMILES: CC[C@H](C)[C@H](N)C(=O)N[C@H](C(=O)N[C@@H](CC(C)C)C(=O)N[C@@H](CO)C(=O)N[C@@H](CC(C)C)C(=O)N[C@@H](CC(=O)O)C(=O)N[C@@H](C(=O)N1CCC[C@H]1C(=O)N[C@H](C(=O)N[C@@H](CCCCN)C(=O)N[C@@H](CC(C)C)C(=O)N[C@@H](CCCCNC(=O)COCCOCCNC(=O)COCCOCCNC(=O)CC[C@H](NC(=O)CCCCCCCCCCCCCCCCC(=O)O)C(=O)O)C(=O)N[C@@H](CCC(N)=O)C(=O)N[C@H](C(=O)N[C@@H](CC(C)C)C(=O)N[C@@H](CC(C)C)C(=O)N[C@@H](CCCCN)C(=O)N[C@@H](CCC(N)=O)C(=O)N[C@@H](C)C(=O)N[C@@H](CCCNC(=N)N)C(=O)N[C@@H](CCC(N)=O)C(=O)N[C@@H](CCCCN)C(=O)NC(C)(C)C(=O)N[C@@H](CCC(N)=O)C(=O)N[C@@H](CCCNC(=N)N)C(=O)N[C@@H](C)C(=O)N[C@@H](CCC(N)=O)C(=O)N[C@@H](C)C(=O)N[C@@H](CCC(=O)O)C(=O)N[C@@H](CCCCN)C(=O)N[C@@H](CC(N)=O)C(=O)N[C@@H](CCCCN)C(=O)N[C@@H](CCCNC(=N)N)C(=O)N[C@H](C(=O)N[C@@H](CC(C)C)C(=O)N[C@@H](CCC(=O)O)C(=O)N[C@@H](CCCNC(=N)N)C(=O)N[C@H](C(N)=O)C(C)C)[C@@H](C)CC)[C@@H](C)CC)[C@@H](C)CC)C(C)C)C(C)C
B2: SEQ ID NO: 140 (peptide)
peptide: IVLSLD[dV]PIKLK([AEEA-AEEA-γGlu-C18 diacid])QILLEQARQK[Aib]QRAQAEKNKRILERV-NH2
modifications: N-terminus assumed
SMILES: CC[C@H](C)[C@H](N)C(=O)N[C@H](C(=O)N[C@@H](CC(C)C)C(=O)N[C@@H](CO)C(=O)N[C@@H](CC(C)C)C(=O)N[C@@H](CC(=O)O)C(=O)N[C@@H](C(=O)N1CCC[C@H]1C(=O)N[C@H](C(=O)N[C@@H](CCCCN)C(=O)N[C@@H](CC(C)C)C(=O)N[C@@H](CCCCNC(=O)COCCOCCNC(=O)COCCOCCNC(=O)CC[C@H](NC(=O)CCCCCCCCCCCCCCCCC(=O)O)C(=O)O)C(=O)N[C@@H](CCC(N)=O)C(=O)N[C@H](C(=O)N[C@@H](CC(C)C)C(=O)N[C@@H](CC(C)C)C(=O)N[C@@H](CCC(=O)O)C(=O)N[C@@H](CCC(N)=O)C(=O)N[C@@H](C)C(=O)N[C@@H](CCCNC(=N)N)C(=O)N[C@@H](CCC(N)=O)C(=O)N[C@@H](CCCCN)C(=O)NC(C)(C)C(=O)N[C@@H](CCC(N)=O)C(=O)N[C@@H](CCCNC(=N)N)C(=O)N[C@@H](C)C(=O)N[C@@H](CCC(N)=O)C(=O)N[C@@H](C)C(=O)N[C@@H](CCC(=O)O)C(=O)N[C@@H](CCCCN)C(=O)N[C@@H](CC(N)=O)C(=O)N[C@@H](CCCCN)C(=O)N[C@@H](CCCNC(=N)N)C(=O)N[C@H](C(=O)N[C@@H](CC(C)C)C(=O)N[C@@H](CCC(=O)O)C(=O)N[C@@H](CCCNC(=N)N)C(=O)N[C@H](C(N)=O)C(C)C)[C@@H](C)CC)[C@@H](C)CC)[C@@H](C)CC)C(C)C)C(C)C
B3: SEQ ID NO: 143 (peptide)
peptide: FTLSLDVPTKIK([AEEA-AEEA-γGlu-C18 diacid])QILLKQEKQKKQRQKAKTNKQILERV-NH2
modifications: N-terminus assumed
SMILES: CC[C@H](C)[C@H](NC(=O)[C@H](CCC(N)=O)NC(=O)[C@H](CCCCN)NC(=O)[C@H](CC(N)=O)NC(=O)[C@@H](NC(=O)[C@H](CCCCN)NC(=O)[C@H](C)NC(=O)[C@H](CCCCN)NC(=O)[C@H](CCC(N)=O)NC(=O)[C@H](CCCNC(=N)N)NC(=O)[C@H](CCC(N)=O)NC(=O)[C@H](CCCCN)NC(=O)[C@H](CCCCN)NC(=O)[C@H](CCC(N)=O)NC(=O)[C@H](CCCCN)NC(=O)[C@H](CCC(=O)O)NC(=O)[C@H](CCC(N)=O)NC(=O)[C@H](CCCCN)NC(=O)[C@H](CC(C)C)NC(=O)[C@H](CC(C)C)NC(=O)[C@@H](NC(=O)[C@H](CCC(N)=O)NC(=O)[C@H](CCCCNC(=O)COCCOCCNC(=O)COCCOCCNC(=O)CC[C@H](NC(=O)CCCCCCCCCCCCCCCCC(=O)O)C(=O)O)NC(=O)[C@@H](NC(=O)[C@H](CCCCN)NC(=O)[C@@H](NC(=O)[C@@H]1CCCN1C(=O)[C@@H](NC(=O)[C@H](CC(=O)O)NC(=O)[C@H](CC(C)C)NC(=O)[C@H](CO)NC(=O)[C@H](CC(C)C)NC(=O)[C@@H](NC(=O)[C@@H](N)Cc1ccccc1)[C@@H](C)O)C(C)C)[C@@H](C)O)[C@@H](C)CC)[C@@H](C)CC)[C@@H](C)O)C(=O)N[C@@H](CC(C)C)C(=O)N[C@@H](CCC(=O)O)C(=O)N[C@@H](CCCNC(=N)N)C(=O)N[C@H](C(N)=O)C(C)C
B4: SEQ ID NO: 142 (peptide)
peptide: IVLSLD[dV]PIKLK([AEEA-AEEA-γGlu-C18 diacid])QILLEQARQK[Aib]QREQAEKNKRILERV-NH2
modifications: N-terminus assumed
SMILES: CC[C@H](C)[C@H](N)C(=O)N[C@H](C(=O)N[C@@H](CC(C)C)C(=O)N[C@@H](CO)C(=O)N[C@@H](CC(C)C)C(=O)N[C@@H](CC(=O)O)C(=O)N[C@@H](C(=O)N1CCC[C@H]1C(=O)N[C@H](C(=O)N[C@@H](CCCCN)C(=O)N[C@@H](CC(C)C)C(=O)N[C@@H](CCCCNC(=O)COCCOCCNC(=O)COCCOCCNC(=O)CC[C@H](NC(=O)CCCCCCCCCCCCCCCCC(=O)O)C(=O)O)C(=O)N[C@@H](CCC(N)=O)C(=O)N[C@H](C(=O)N[C@@H](CC(C)C)C(=O)N[C@@H](CC(C)C)C(=O)N[C@@H](CCC(=O)O)C(=O)N[C@@H](CCC(N)=O)C(=O)N[C@@H](C)C(=O)N[C@@H](CCCNC(=N)N)C(=O)N[C@@H](CCC(N)=O)C(=O)N[C@@H](CCCCN)C(=O)NC(C)(C)C(=O)N[C@@H](CCC(N)=O)C(=O)N[C@@H](CCCNC(=N)N)C(=O)N[C@@H](CCC(=O)O)C(=O)N[C@@H](CCC(N)=O)C(=O)N[C@@H](C)C(=O)N[C@@H](CCC(=O)O)C(=O)N[C@@H](CCCCN)C(=O)N[C@@H](CC(N)=O)C(=O)N[C@@H](CCCCN)C(=O)N[C@@H](CCCNC(=N)N)C(=O)N[C@H](C(=O)N[C@@H](CC(C)C)C(=O)N[C@@H](CCC(=O)O)C(=O)N[C@@H](CCCNC(=N)N)C(=O)N[C@H](C(N)=O)C(C)C)[C@@H](C)CC)[C@@H](C)CC)[C@@H](C)CC)C(C)C)C(C)C
B5: SEQ ID NO: 139 (peptide)
peptide: IVLSLD[dV]PIKLK([AEEA-AEEA-γGlu-C18 diacid])QILLKQERQKKQRQQAEKNKQILAQV-NH2
modifications: N-terminus assumed
SMILES: CC[C@H](C)[C@H](N)C(=O)N[C@H](C(=O)N[C@@H](CC(C)C)C(=O)N[C@@H](CO)C(=O)N[C@@H](CC(C)C)C(=O)N[C@@H](CC(=O)O)C(=O)N[C@@H](C(=O)N1CCC[C@H]1C(=O)N[C@H](C(=O)N[C@@H](CCCCN)C(=O)N[C@@H](CC(C)C)C(=O)N[C@@H](CCCCNC(=O)COCCOCCNC(=O)COCCOCCNC(=O)CC[C@H](NC(=O)CCCCCCCCCCCCCCCCC(=O)O)C(=O)O)C(=O)N[C@@H](CCC(N)=O)C(=O)N[C@H](C(=O)N[C@@H](CC(C)C)C(=O)N[C@@H](CC(C)C)C(=O)N[C@@H](CCCCN)C(=O)N[C@@H](CCC(N)=O)C(=O)N[C@@H](CCC(=O)O)C(=O)N[C@@H](CCCNC(=N)N)C(=O)N[C@@H](CCC(N)=O)C(=O)N[C@@H](CCCCN)C(=O)N[C@@H](CCCCN)C(=O)N[C@@H](CCC(N)=O)C(=O)N[C@@H](CCCNC(=N)N)C(=O)N[C@@H](CCC(N)=O)C(=O)N[C@@H](CCC(N)=O)C(=O)N[C@@H](C)C(=O)N[C@@H](CCC(=O)O)C(=O)N[C@@H](CCCCN)C(=O)N[C@@H](CC(N)=O)C(=O)N[C@@H](CCCCN)C(=O)N[C@@H](CCC(N)=O)C(=O)N[C@H](C(=O)N[C@@H](CC(C)C)C(=O)N[C@@H](C)C(=O)N[C@@H](CCC(N)=O)C(=O)N[C@H](C(N)=O)C(C)C)[C@@H](C)CC)[C@@H](C)CC)[C@@H](C)CC)C(C)C)C(C)C
B6: SEQ ID NO: 14 (peptide)
peptide: FTLSLDVPTKIK([γGlu-Palmitoyl])QKLLKQEKQRKQKQKAKTNAKILARV-NH2
modifications: N-terminus assumed
SMILES: CCCCCCCCCCCCCCCC(=O)N[C@@H](CCC(=O)NCCCC[C@H](NC(=O)[C@@H](NC(=O)[C@H](CCCCN)NC(=O)[C@@H](NC(=O)[C@@H]1CCCN1C(=O)[C@@H](NC(=O)[C@H](CC(=O)O)NC(=O)[C@H](CC(C)C)NC(=O)[C@H](CO)NC(=O)[C@H](CC(C)C)NC(=O)[C@@H](NC(=O)[C@@H](N)Cc1ccccc1)[C@@H](C)O)C(C)C)[C@@H](C)O)[C@@H](C)CC)C(=O)N[C@@H](CCC(N)=O)C(=O)N[C@@H](CCCCN)C(=O)N[C@@H](CC(C)C)C(=O)N[C@@H](CC(C)C)C(=O)N[C@@H](CCCCN)C(=O)N[C@@H](CCC(N)=O)C(=O)N[C@@H](CCC(=O)O)C(=O)N[C@@H](CCCCN)C(=O)N[C@@H](CCC(N)=O)C(=O)N[C@@H](CCCNC(=N)N)C(=O)N[C@@H](CCCCN)C(=O)N[C@@H](CCC(N)=O)C(=O)N[C@@H](CCCCN)C(=O)N[C@@H](CCC(N)=O)C(=O)N[C@@H](CCCCN)C(=O)N[C@@H](C)C(=O)N[C@@H](CCCCN)C(=O)N[C@H](C(=O)N[C@@H](CC(N)=O)C(=O)N[C@@H](C)C(=O)N[C@@H](CCCCN)C(=O)N[C@H](C(=O)N[C@@H](CC(C)C)C(=O)N[C@@H](C)C(=O)N[C@@H](CCCNC(=N)N)C(=O)N[C@H](C(N)=O)C(C)C)[C@@H](C)CC)[C@@H](C)O)C(=O)O

Target: human corticotropin-releasing factor 2α (CRF2 α receptor) (human), Q13324
Sequence (Q13324 20-411): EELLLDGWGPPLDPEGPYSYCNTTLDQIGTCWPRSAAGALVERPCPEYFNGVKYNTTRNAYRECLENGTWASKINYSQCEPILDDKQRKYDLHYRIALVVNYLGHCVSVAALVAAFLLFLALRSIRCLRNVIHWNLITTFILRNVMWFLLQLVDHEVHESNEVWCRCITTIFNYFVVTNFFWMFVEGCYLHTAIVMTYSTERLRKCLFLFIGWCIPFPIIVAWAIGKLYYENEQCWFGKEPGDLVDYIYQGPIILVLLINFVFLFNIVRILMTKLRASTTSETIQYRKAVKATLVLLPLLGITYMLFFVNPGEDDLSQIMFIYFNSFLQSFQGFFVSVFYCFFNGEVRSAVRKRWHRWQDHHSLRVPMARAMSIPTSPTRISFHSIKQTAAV
Assay: cell-based or functional assay

EC50 [nM], 0% HSA [nM]	EC50 [nM], 0.1% HSA [nM]	Binder
0.03	0.97	B1
0.04	1.27	B2
1.44	93.8	B3
0.05	1.42	B4
0.03	1.31	B5
0.18		B6
